T1: HCV Core1-169 (HCV-1), P26664
T1 chain: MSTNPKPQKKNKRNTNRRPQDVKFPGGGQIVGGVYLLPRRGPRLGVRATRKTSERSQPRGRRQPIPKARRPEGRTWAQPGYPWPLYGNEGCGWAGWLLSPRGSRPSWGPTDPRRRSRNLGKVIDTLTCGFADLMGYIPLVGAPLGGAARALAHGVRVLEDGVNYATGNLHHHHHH


What was measured:
[1] = target: biotinylated HCV core peptide 134-154 (Peptide 1) (HCV-1); test: EIA, captured mAb
[2] = target: biotinylated HCV core peptide 141-161 (Peptide 2) (HCV-1); test: EIA, captured mAb
[3] = target: biotinylated HCV core peptide 151-171 (Peptide 3) (HCV-1); test: EIA, captured mAb
[4] = target: T1, HCV Core1-169 (HCV-1), P26664; test: SPR sandwich, C11-3 capture; conditions: remark: other sources report otherwise
[5] = target: T1, HCV Core1-169 (HCV-1), P26664; test: SPR sandwich, C11-7 capture; conditions: remark: other sources report otherwise
[6] = target: T1, HCV Core1-169 (HCV-1), P26664; test: SPR sandwich, C11-9 capture; conditions: remark: other sources report otherwise
[7] = target: T1, HCV Core1-169 (HCV-1), P26664; test: SPR sandwich, C11-14 capture; conditions: remark: other sources report otherwise
HCV Core1-169 (HCV-1) [8] = target: HCV Core1-169 (HCV-1) (UniProt P26664); test: SPR sandwich, C11-3 capture
HCV Core1-169 (HCV-1) [9] = target: HCV Core1-169 (HCV-1) (UniProt P26664); test: SPR sandwich, C11-7 capture
HCV Core1-169 (HCV-1) [10] = target: HCV Core1-169 (HCV-1) (UniProt P26664); test: SPR sandwich, C11-9 capture
HCV Core1-169 (HCV-1) [11] = target: HCV Core1-169 (HCV-1) (UniProt P26664); test: SPR sandwich, C11-14 capture

Binder | Reactivity (OD492) [1] [OD] | Reactivity (OD492) [2] [OD] | Reactivity (OD492) [3] [OD] | also measured
HCV 208B-862 (antibody) chain 1: DVQLQESGPGLVKPSQSLSLTCTVTGYSITSDYAWNWIRQFPGNKLEWMGYISYSGTTVYSPSLKSRISITRDTSKNQFFLQLNSVTIEDSATYYCGGNYWGQGTLVTVSA chain 2: DVVLTQTPLSLPLSLGDQASISCRSSQTLLHSDGDTYLHWYLQKPGQSPKLLIYKLSNRFSGVPDRFSGSGSGTDFTLKISRVEAEDLGVYFCSQSTHVPYTFGGGTKLEIKR | 0.21 | 3.28 | 0.1 | 
HCV 208B-612 (antibody, V domains shown) VH: EVQLQQSGPELVKPGASVKMSCKASGYRFTSYVMHWVRQKPGQGLEWIGYIDPHNDDTKYSEKFRGKATLTSDKSSTTAYMELSSLTSEDSAVYYCVRYSYDRDYSPMDYWGQGTSVTVSS VL: QIVLTQSPTLMSASPGEKVTMTCSASSTVTYIYWYQQKPGSSPRLWMYDTFNLVSGVPARFSGSRSGTSYFLTISSMEGEDAATYYCQQYSDSPYTFGGGTKLEIKR | 3.05 | 3.04 | 0.15 | 
HCV 208B-911 (antibody, V domains shown) VH: QVHLQQPGAELVRPGVSVKLSCKASGYTFTTYSINWMKQRPGQGLEWIGNIYPSTSHTNYNQKFRDKATMTVDKSSSTAYMQLSSPTSEDSAVYYCTINAYSMDYWGQGTSVTVSS VL: QIVLTQSPEIMSASPGEKVTITCSASSSVSFMYWFQQKPGTSPKLWIYITSNLASGVPTRFSGSGSGTSYSLTISRMEAEDAATYYCQQRSSFPYTFGGGTKLEMKR | 0.09 | 0.09 | 0.71 | 
HCV 208B-547 (antibody, V domains shown) VH: QVQLQQSGAELAKPGASVKMSCKASGYTFTSNKMHWAKQRPGQGLEWIGYIDPSSGYTEYNQKIKDKATLTADKSSSTAYMQLSSLTSEDSAVYYCTNFAYWGQGTLVTVSA VL: EVVLTQSPAITAASLGQKVTITCRASSSVSYMHWYRQKSGTSPQPWIYEISTLASGVPTRFRASGSGTSYSLTISSMEAEDAAIYYCQQWNYPLTFGAGTKLELKR | 0.12 | 0.08 | 2.9 | 
HCV 208B-589 (antibody, V domains shown) VH: QVQLQQSGAGLAKPGASVKMSCKASGYTFTANKMHWAKQRPGQGLEWIGYIDPSSGYTEYNHKIQDKATLTADTSSSTAYMQLSSLTFEDSAVYYCTNFAYWGQGTLVTVSA VL: DIVMTQTPLTLSVTIGQPASISCKSSQSLLFTNGKTYLNWFLQRPGQSPKRLIYLLSKLDSGVPDRFSGSGSGTDFTLKISRVEAEDLGVYYCLQSTYFPLTFGAGTKLELKR | 0.27 | 0.1 | 2.85 | 
HCV 208B-556 (antibody, V domains shown) VH: QLQQSGPVLVKPGASVMISCKTSGYTFTENAMHWVKQSHGKSLEWIGGVNPNNGDTIFNQKFKGKATLTVDKSSSTAFMEFRSLTSEESTVYYCVRRELDFFDYWGQGTSVTVSS VL: DIVLTQSPASLAVSLGQRATISCRASQSVSTSRYSYMHWYQQKPGQPPKLLIKYASNLESGVPARFSGSGSGTDFTLNIHPVAEEDTATYYCQHSWEFPFTFGSGTKLEIKR | 0.13 | 3.07 | 0.18 | 
HCV 208B-560 (antibody, V domains shown) VH: EVQLQQSGPELEKPGASVKISCKTSGYTFTEYAMHWVKQSHGMSLEWIGGINPSNGNAIYNQIFKDKATLTVDRSSSTAYMGLRSLTFGDSGVYFCVRRQLDFFDYWGQGASLTVSS VL: DIVVTQSPASLAVSLGQRATISCRASQSVSTSRYSYLHWYQQKPGQPPKLLIKYASNLESGVPARFSGSGSGTDFTLNIHPVGEEDTATYYCQHSWEFPFTFGSGTKLEIKR | 0.11 | 3.9 | 0.14 | 
HCV 208B-517 (antibody, V domains shown) VH: QVQLKQSGPGLVQPSQSLSITCTVSGFSLITHGVHWVRQSPGKGLEWLGVIWSGGSTDYNAAFISRLSISKDTSKSQVFLKMSSLQADDTAIYYCARNGGATAFDYWGQGTTLTVSS VL: DIVMTQSPATLSVTPGDRVSLSCRASQSISDYLHWYQQKSHESPRLLIKYASQSISGIPSRFRGSGSGSHFTLSINSVEPEDVGVYYCQNGHSFPWTFGGGTKLEIKR | 0.1 | 0.41 | 0.7 | 
HCV 208B-822 (antibody, V domains shown) VH: QVQLKQSGPGLVQPSQSLSITCTVSGFSLITYGVHWVRQSPGKGLEWLGVIWGGGSTGYNAAFVSRLNITKDNSKSQVFFKMNSLQPDDTAIYYCARNGGATVFDYWGQGTTLTVSS VL: DIVMTQSPATLSVTPGDRVSLSCRASQTISDYLHWYQQKSHESPRLLIKYASQSISGIPSRFSGSGSGSHFTLSINSVEPEDVGVYYCQNGHSFPWTFGGGTKLEIKR | 0.08 | 1.35 | 0.07 | 
HCV 208A-983 (antibody, V domains shown) VH: QGQMQQSGAELVKPGASVKLSCKTSGFTFSSSYFSWLKQKPGQSLEWIAWIYAGTGNTIYNQKFTDKAQLTVDTASSTAFMQLSSLTIEDSAIYYCAISGTGFTYWGQGTLVTVSA VL: DVLMTQTPLSLPVNLGDQASISCRSSQSLLHSNGNTYLEWFLQKPGQSPKLLIYNVSNRFSGVPDRFSGSGSGTDFTLKISRVEAEDLGVYYCFQGSHVPFTFGSGTKLAIKR | 3.03 | 0.4 | 0.05 | expected % binding [4]: < 1%; expected % binding [5]: < 1%; expected % binding [6]: < 1%; expected % binding [7]: < 1%
HCV 208B-793 (antibody, V domains shown) VH: EVKLVESGGGLVQPGGSLKLSCAASGFTFSSYAMSWVRQTPERRLEWVTYISNGGGSTYYSDTVKGRFTFSRDNAKNTLYLQMSSLKSEDTAMYYCARHGLGRTGFASWGQGTLVTVSA VL: DIVMTQSHKFMSTSVGDRVSITCKASQDVGTAVAWYQQKPGQSPKLLIYWASTRHTGVPDRFTGSGSGTDFTLTISNVQSEDLADYFCQQYSNYLTFGAGTKLEVKR | 0.09 | 0.72 | 0.09 | 
HCV 208B-672 (antibody, V domains shown) VH: EVKLVESGGSLVQPGGSLKLSCAASGFNFNTYAMSWVRQTPEKRLEWVAYISNGGGNTYYVDTVKGRFTISRDNAKNTLYLRMSSLKSEDTAMYYCARHGLYWGYSMDYWGQGTSVTVSS VL: DIQMTQSPSSLSASLGERVSLTCRASQDIGGSINWLQQEPDGTIKRLIYATSSLDSGVPKRFSGSRSGSDYSLTISSLESEDFVDYYCLQYASSPPTFGGGTKLEIKR | 0.08 | 2.79 | 0.1 | 
HCV 208B-515 (antibody, V domains shown) VH: QVQLQQPGAELVKPGASLKLSCRASGYTFTSYWIHWVKQRPGQGLEWIGEIDPSDSYTNYNQKFKGKATLTVDKSSRAAYMQLSSLTSEDSAVYYCARHYYGVFDSWGQGTKLTVSS VL: QIVFTQYPAIMSASLGERVTMTCTASSSVTSSYLHWFQQKPGSSPKLWIYSTSNPGSGVPARFSGRGSGTSYSLSISSMEAEDAATYYCLQFHRSPWTFGGGTKLEIRR | 0.51 | 0.13 | 0.06 | 
HCV 208B-174 (antibody, V domains shown) VH: EVKLEESGGGLVQPGGSMKLSCVASGFSFSSYWMSWVRQSPEKGLDWVAEIRLRSDNYATHYAESVKGRFTISRDDSISRLYLQMNTLRAEDTGIYYCTWMTYWGQGTLVTVSA VL: QNVLTQSPAIMSASPGEKVTMSCSASSSVTYMFWYQLKPESSPRLLIYDTSNLASGVPVRFSGSGSGTSYSLTISRMEAEDAATYYCQEWSSYPLTFGAGTKLDLKR | 0.08 | 1.26 | 0.07 | expected % binding [4]: 1.6%; expected % binding [5]: 1.5%; expected % binding [6]: < 1%; expected % binding [7]: 1.6%
HCV 208B-826 (antibody, V domains shown) VH: DVQLVESGGGLVQAGGSRKLSCAASGFPFSSFGMHWVRQAPEKGLEWVASISSRTSKIYYADNLKGRFTISRDNPKNTLFLQMTSLGSEDTAMYYCVRSVFGNSYWFFDVWGAGTTVTVSS VL: DIVLTQSPATLSVTPGDRVSLSCRASQRIYNYLHWYQQKSHESPRLLTKYASQSISGIPSRFSGSGSGTDFILTINSVETEDFGMYFCQQSNSWPLTFGAGTKLELRR | 0.53 | 1.35 | 0.08 | 
HCV 208A-874 (antibody, V domains shown) VH: QVQLQQPGAELVKPGASVKLSCKASGYTLSSYWMHWVKQRPGQGLEWIGEIHPSDSYTSYNQKFKDKATLTVDKSSSTAYMQLSSLTSEDSAVYYCARGGYYRYDEFAYWGQGTLVTVSA VL: DIVMTQSHKFMSTSIGDRVSITCKASQNVSPAVAWYQQKPGQSPKLLIYSASSRYTGVPDRFTGSGSGTAFTFTISSVQAEDLAVYFCQQHFSTPWTFGGGTMLEIKR | 0.05 | 0.73 | 0.06 | expected % binding (HCV Core1-169 (HCV-1) [8]): < 1%; expected % binding (HCV Core1-169 (HCV-1) [9]): < 1%; expected % binding (HCV Core1-169 (HCV-1) [10]): < 1%; expected % binding (HCV Core1-169 (HCV-1) [11]): < 1%
